Biological target: T1, GST-PTPMT1 (human) (UniProt Q8WUK0)
T1 sequence: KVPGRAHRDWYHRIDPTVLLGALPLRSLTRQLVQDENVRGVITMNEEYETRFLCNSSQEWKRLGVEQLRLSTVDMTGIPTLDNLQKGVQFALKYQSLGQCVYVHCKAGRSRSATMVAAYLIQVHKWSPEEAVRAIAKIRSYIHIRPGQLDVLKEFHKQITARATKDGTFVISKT

reduction of PTPMT1 phosphatase activity towards OMFP, compared to FLAG protein alone; MK-STYX incubated with GST-PTPMT1 at 1:1 (51%) to 2:1 (60%) mass ratio: 60%
Substance: FLAG-MK-STYX (from UniProt Q9Y6J8-1 2-313) (natural protein)
